Results reported in PMC10086132, “Riboflavin kinase and pyridoxine 5′-phosphate oxidase complex formation envisages transient interactions for FMN cofactor delivery” (Frontiers in Molecular Biosciences, 2023).
One block for each molecule: values may come before it.

Tests used:
[1] = target: T1, PNPOx (pyridoxine-5′-phosphate oxidase; aPNPOx for the apo-form) (Homo sapiens, UniProt Q9NVS9); assay: stopped-flow flavin fluorescence quenching; format: binding; conditions: faster of two association processes, 20 mM PIPES pH 7.0, 0.3 mM MgCl2, 25 °C
T1 construct: gene PNPO; pET28a(+) in Escherichia coli, HisTrap-purified, tag removal not mentioned; homodimer; FMN removed for the apo-form
T1 sequence (Q9NVS9 1-261): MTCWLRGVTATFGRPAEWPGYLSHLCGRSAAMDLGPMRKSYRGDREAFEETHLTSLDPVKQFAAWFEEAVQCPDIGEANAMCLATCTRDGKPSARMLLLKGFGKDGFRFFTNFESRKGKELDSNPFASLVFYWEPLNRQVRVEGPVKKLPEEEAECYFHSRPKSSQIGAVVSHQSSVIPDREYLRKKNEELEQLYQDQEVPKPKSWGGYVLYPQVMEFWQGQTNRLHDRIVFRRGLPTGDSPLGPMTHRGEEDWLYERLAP

[2] = target: T1, PNPOx (pyridoxine-5′-phosphate oxidase; aPNPOx for the apo-form); assay: thermal unfolding followed by Trp and FMN fluorescence; format: binding; conditions: holo-form versus apo-form; 20 mM PIPES pH 7.0
[3] = target: T2, RFK (riboflavin kinase; hRFK when loaded with FMN:ADP:Mg2+) (Homo sapiens, UniProt Q969G6); assay: as above; format: binding; conditions: FMN bound together with ADP:Mg2+ (hRFK) versus ligand-free RFK; 20 mM PIPES pH 7.0
T2 construct: recombinant, purified in apo-form by a previously described procedure
T2 sequence (Q969G6 1-155): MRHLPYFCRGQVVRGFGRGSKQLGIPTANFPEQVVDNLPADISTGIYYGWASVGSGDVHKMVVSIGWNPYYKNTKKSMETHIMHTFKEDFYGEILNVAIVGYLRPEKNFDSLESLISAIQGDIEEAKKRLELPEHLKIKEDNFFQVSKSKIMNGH

RFK [4] = target: T3, RFK (Homo sapiens, UniProt Q969G6); assay: ITC
T3 chain: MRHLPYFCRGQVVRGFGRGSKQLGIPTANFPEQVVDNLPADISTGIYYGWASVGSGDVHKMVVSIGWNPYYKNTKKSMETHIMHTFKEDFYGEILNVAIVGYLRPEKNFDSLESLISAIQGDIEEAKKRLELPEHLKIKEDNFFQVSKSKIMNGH

RFK [5] = target: T3, RFK; assay: stopped-flow fluorescence
purified protein = substrate: Cc1cc2nc3c(=O)[nH]c(=O)nc-3n(C[C@H](O)[C@H](O)[C@H](O)CO)c2cc1C; assay: purified protein; conditions: no aPNPOx, 400 µM ATP, 0.3 mM MgCl2, 20 mM PIPES pH 7.0, 25 °C

Molecule: Cc1cc2nc3c(=O)[nH]c(=O)nc-3n(C[C@H](O)[C@H](O)[C@H](O)COP(=O)(O)O)c2cc1C [FMN]
k on1 ^FMN [1]: 340000 ± 20000 M⁻¹ s⁻¹
increase of Tm [2]: Both proteins were considerably less stable in apo-forms regarding their respective holo-forms
increase of Tm [3]: ~ 32 °C

B1: PNPOx (protein)
chain: MTCWLRGVTATFGRPAEWPGYLSHLCGRSAAMDLGPMRKSYRGDREAFEETHLTSLDPVKQFAAWFEEAVQCPDIGEANAMCLATCTRDGKPSARMLLLKGFGKDGFRFFTNFESRKGKELDSNPFASLVFYWEPLNRQVRVEGPVKKLPEEEAECYFHSRPKSSQIGAVVSHQSSVIPDREYLRKKNEELEQLYQDQEVPKPKSWGGYVLYPQVMEFWQGQTNRLHDRIVFRRGLPTGDSPLGPMTHRGEEDWLYERLAP
modifications: apo-PNPOx homodimer; ligand-free RFK
Kd (RFK [4]): 14000 nM

B4: RFK (riboflavin kinase; hRFK when loaded with FMN:ADP:Mg2+) (Homo sapiens) (protein)
chain: MRHLPYFCRGQVVRGFGRGSKQLGIPTANFPEQVVDNLPADISTGIYYGWASVGSGDVHKMVVSIGWNPYYKNTKKSMETHIMHTFKEDFYGEILNVAIVGYLRPEKNFDSLESLISAIQGDIEEAKKRLELPEHLKIKEDNFFQVSKSKIMNGH
Km (purified protein): 2.2 ± 0.3 µM
kcat (purified protein): 1 s⁻¹
kcat/Km (purified protein): 450000 M⁻¹ s⁻¹

Further lines, results first:

Kd (RFK [4]): 900 nM
Kd (RFK [5]): ~1000 nM
B2: PNPOx (protein)
chain: MTCWLRGVTATFGRPAEWPGYLSHLCGRSAAMDLGPMRKSYRGDREAFEETHLTSLDPVKQFAAWFEEAVQCPDIGEANAMCLATCTRDGKPSARMLLLKGFGKDGFRFFTNFESRKGKELDSNPFASLVFYWEPLNRQVRVEGPVKKLPEEEAECYFHSRPKSSQIGAVVSHQSSVIPDREYLRKKNEELEQLYQDQEVPKPKSWGGYVLYPQVMEFWQGQTNRLHDRIVFRRGLPTGDSPLGPMTHRGEEDWLYERLAP
modifications: apo-PNPOx homodimer; RFK loaded with FMN and ADP:Mg2+

Kd (RFK [4]): 130 nM
B3: PNPOx (protein)
chain: MTCWLRGVTATFGRPAEWPGYLSHLCGRSAAMDLGPMRKSYRGDREAFEETHLTSLDPVKQFAAWFEEAVQCPDIGEANAMCLATCTRDGKPSARMLLLKGFGKDGFRFFTNFESRKGKELDSNPFASLVFYWEPLNRQVRVEGPVKKLPEEEAECYFHSRPKSSQIGAVVSHQSSVIPDREYLRKKNEELEQLYQDQEVPKPKSWGGYVLYPQVMEFWQGQTNRLHDRIVFRRGLPTGDSPLGPMTHRGEEDWLYERLAP
modifications: holo-PNPOx homodimer with FMN; RFK loaded with FMN and ADP:Mg2+; first binding site
